Measured values taken from IntAct's records for PubMed 10779557.

B1: Lymphokine-activated killer T-cell-originated protein kinase (Homo sapiens), Q96KB5 (parent)
chain: MEGISNFKTPSKLSEKKKSVLCSTPTINIPASPFMQKLGFGTGVNVYLMKRSPRGLSHSPWAVKKINPICNDHYRSVYQKRLMDEAKILKSLHHPNIVGYRAFTEANDGSLCLAMEYGGEKSLNDLIEERYKASQDPFPAAIILKVALNMARGLKYLHQEKKLLHGDIKSSNVVIKGDFETIKICDVGVSLPLDENMTVTDPEACYIGTEPWKPKEAVEENGVITDKADIFAFGLTLWEMMTLSIPHINLSNDDDDEDKTFDESDFDDEAYYAALGTRPPINMEELDESYQKVIELFSVCTNEDPKDRPSAAHIVEALETDV

Variants of: B1
Details: with dlg1_human DLG1, Q12959
Sequence of dlg1_human DLG1, Q12959 (Q12959 whole entry, looked up): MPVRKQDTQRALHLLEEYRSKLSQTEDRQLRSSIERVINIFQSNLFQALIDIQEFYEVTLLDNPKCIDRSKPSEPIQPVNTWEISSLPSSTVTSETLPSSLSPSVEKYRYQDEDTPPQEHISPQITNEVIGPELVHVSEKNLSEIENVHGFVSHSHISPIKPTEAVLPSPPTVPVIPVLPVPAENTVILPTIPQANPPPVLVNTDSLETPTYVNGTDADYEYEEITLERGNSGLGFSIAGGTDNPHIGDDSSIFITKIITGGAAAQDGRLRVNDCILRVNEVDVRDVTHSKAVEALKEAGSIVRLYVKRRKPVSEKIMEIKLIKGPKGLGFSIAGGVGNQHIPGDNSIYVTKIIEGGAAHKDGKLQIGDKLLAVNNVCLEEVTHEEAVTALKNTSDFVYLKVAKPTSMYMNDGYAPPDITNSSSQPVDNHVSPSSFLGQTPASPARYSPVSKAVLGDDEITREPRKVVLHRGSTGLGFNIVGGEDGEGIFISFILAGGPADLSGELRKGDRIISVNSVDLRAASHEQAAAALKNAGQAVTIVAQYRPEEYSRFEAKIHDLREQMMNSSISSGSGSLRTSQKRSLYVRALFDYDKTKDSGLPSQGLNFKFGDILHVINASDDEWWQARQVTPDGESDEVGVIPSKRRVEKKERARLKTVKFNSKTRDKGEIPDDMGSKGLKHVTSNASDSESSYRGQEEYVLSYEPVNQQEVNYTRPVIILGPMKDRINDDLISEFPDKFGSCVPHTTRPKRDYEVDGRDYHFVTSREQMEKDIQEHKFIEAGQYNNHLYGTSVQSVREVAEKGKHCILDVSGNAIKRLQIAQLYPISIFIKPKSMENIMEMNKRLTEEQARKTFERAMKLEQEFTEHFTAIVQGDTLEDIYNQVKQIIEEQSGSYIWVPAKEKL

| Variant | effect of a mutation on the interaction |
| --- | --- |
| MEGISNFKTPSKLSEKKKSVLCSTPTINIPASPFMQKLGFGTGVNVYLMKRSPRGLSHSPWAVKKINPICNDHYRSVYQKRLMDEAKILKSLHHPNIVGYRAFTEANDGSLCLAMEYGGEKSLNDLIEERYKASQDPFPAAIILKVALNMARGLKYLHQEKKLLHGDIKSSNVVIKGDFETIKICDVGVSLPLDENMTVTDPEACYIGTEPWKPKEAVEENGVITDKADIFAFGLTLWEMMTLSIPHINLSNDDDDEDKTFDESDFDDEAYYAALGTRPPINMEELDESYQKVIELFSVCTNEDPKDRPSAAHIVEALETDA [V322A] | disrupting interaction |
| MEGISNFKTPSKLSEKKKSVLCSTPTINIPASPFMQKLGFGTGVNVYLMKRSPRGLSHSPWAVKKINPICNDHYRSVYQKRLMDEAKILKSLHHPNIVGYRAFTEANDGSLCLAMEYGGEKSLNDLIEERYKASQDPFPAAIILKVALNMARGLKYLHQEKKLLHGDIKSSNVVIKGDFETIKICDVGVSLPLDENMTVTDPEACYIGTEPWKPKEAVEENGVITDKADIFAFGLTLWEMMTLSIPHINLSNDDDDEDKTFDESDFDDEAYYAALGTRPPINMEELDESYQKVIELFSVCTNEDPKDRPSAAHIVEALEADV [T320A] | decreasing interaction |
